{
  "source": "paper PMC5071372",
  "about": "“Combining biophysical methods to analyze the disulfide bond in SH2 domain of C-terminal Src kinase” (Biophysics Reports, 2016)",
  "binders": {"B1": {"name": "Cbp phosphopeptide ISAMpYSSVNK (peptide)", "peptide": "ISAM[pY]SSVNK", "notes": "also called Cbp peptide; Cbp-phosphorylated peptide; source: synthetic peptide (GenScript, solid-phase synthesis)"}},
  "key": {"[1]": {"target": "T1, Csk L-SH2 domain (A73–A178), oxidized form (human, UniProt P41240 73-178, disulfide bond C122–C164)", "T1 construct": "C-terminal Src kinase (Csk), human, SH2 domain with part of the SH3-SH2 linker, residues A73-A178; intramolecular disulfide bond between C122 and C164; Same polypeptide as m1, differing only in the C122–C164 disulfide bond; also called oxidized SH2; oxidized L-SH2; source: E. coli BL21 (DE3) RIL, purified (chitin beads, intein cleaved with DTT, Mono Q); oxidized by exposure to air for about a …", "T1 sequence (looked up)": "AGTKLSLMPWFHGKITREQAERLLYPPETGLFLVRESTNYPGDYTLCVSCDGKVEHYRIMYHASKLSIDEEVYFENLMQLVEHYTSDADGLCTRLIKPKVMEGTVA", "assay": "other fluorescence titration; intrinsic tryptophan fluorescence of L-SH2 (typically 5 μmol/L) titrated with Cbp peptide; 25 °C, 3 mL of 50 mmol/L Tris-HCl pH 7.5; excitation 288 nm, emission 320 nm", "conditions": "both partners purified"}, "[2]": {"target": "T2, Csk L-SH2 domain (A73–A178), reduced form (human, UniProt P41240 73-178)", "T2 construct": "C-terminal Src kinase (Csk), human, SH2 domain with part of the SH3-SH2 linker, residues A73-A178; C122 and C164 as free thiols; Cloned into pTWIN1 as described in Liu et al. 2009; 15N/13C-labelled for the NMR experiments; PDB 3EAC is the oxidized form of the same construct; also called reduced SH2; reduced L-SH2; source: E. coli BL21 (DE3) RIL, purified (chitin beads, intein cleaved with 50 …)", "T2 sequence (looked up)": "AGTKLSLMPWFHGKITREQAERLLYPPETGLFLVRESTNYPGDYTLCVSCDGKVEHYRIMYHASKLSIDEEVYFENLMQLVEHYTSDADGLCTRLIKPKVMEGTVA", "assay": "other fluorescence titration; intrinsic tryptophan fluorescence of L-SH2 (typically 5 μmol/L) titrated with Cbp peptide; 25 °C, 3 mL of 50 mmol/L Tris-HCl pH 7.5; excitation 288 nm, emission 320 nm", "conditions": "both partners purified"}},
  "note": "Square brackets hold non-standard residues; d marks the D form. Ends that are not written are not given here. pY = N[C@@H](Cc1ccc(OP(=O)(O)O)cc1)C(=O)O",
  "data": [
    {"binder": "B1", "values": [
      {"measurement": "Kd", "setting": "[1]", "value": "990 ± 80", "unit": "nM"},
      {"measurement": "Kd", "setting": "[2]", "value": "520 ± 50", "unit": "nM"}
    ]}
  ]
}
